Experimental data from article PMC9989923, “A curcumin analogue GO‐Y030 depletes cancer stem cells by inhibiting the interaction between the HSP70/HSP40 complex and its substrates” (FEBS Open Bio, 2023).

Legend:
[1] = target: T1, recombinant human HSP70‐1A protein (human, UniProt P0DMV8 1-641); assay: ELISA; substrate-binding assay: CMLA immobilised at 500 ng per well; 50 ng per well HSP70-1A or dnaJ-B1 in 20 mM Tris-HCl pH 7.5, 20 mM NaCl, 10 mM MgCl2, 0.2% BSA, 60 min at 30 °C; detected with anti-HSP70 or anti-DNAJB1 pAb and alkaline phosphatase-labelled secondary antibody; with dimethylsulfoxide, GO-Y030 or PFT-μ; details: both partners purified
T1 construct: recombinant human HSP70-1A (gene HSPA1A), bought from StressMarq Biosciences; No catalogue number printed; source: bought: StressMarq Biosciences

[2] = target: T2, recombinant human HSP40/Hdj1 (dnaJ‐B1) protein (human, UniProt P25685 1-340); assay: as above; details: both partners purified
T2 construct: recombinant human HSP40/Hdj1 (dnaJ-B1, gene DNAJB1), bought from Enzo Life Sciences; No catalogue number printed; source: bought: Enzo Life Sciences
T2 sequence (P25685 whole entry): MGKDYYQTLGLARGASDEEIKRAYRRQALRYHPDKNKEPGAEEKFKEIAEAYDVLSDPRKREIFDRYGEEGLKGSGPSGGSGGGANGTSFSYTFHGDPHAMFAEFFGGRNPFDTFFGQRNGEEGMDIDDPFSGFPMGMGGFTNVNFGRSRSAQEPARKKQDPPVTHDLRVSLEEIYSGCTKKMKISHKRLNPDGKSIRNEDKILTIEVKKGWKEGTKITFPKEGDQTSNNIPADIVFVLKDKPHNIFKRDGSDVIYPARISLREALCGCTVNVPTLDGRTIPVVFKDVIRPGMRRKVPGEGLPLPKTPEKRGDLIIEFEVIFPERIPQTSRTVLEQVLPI

T1 sequence (P0DMV8 whole entry): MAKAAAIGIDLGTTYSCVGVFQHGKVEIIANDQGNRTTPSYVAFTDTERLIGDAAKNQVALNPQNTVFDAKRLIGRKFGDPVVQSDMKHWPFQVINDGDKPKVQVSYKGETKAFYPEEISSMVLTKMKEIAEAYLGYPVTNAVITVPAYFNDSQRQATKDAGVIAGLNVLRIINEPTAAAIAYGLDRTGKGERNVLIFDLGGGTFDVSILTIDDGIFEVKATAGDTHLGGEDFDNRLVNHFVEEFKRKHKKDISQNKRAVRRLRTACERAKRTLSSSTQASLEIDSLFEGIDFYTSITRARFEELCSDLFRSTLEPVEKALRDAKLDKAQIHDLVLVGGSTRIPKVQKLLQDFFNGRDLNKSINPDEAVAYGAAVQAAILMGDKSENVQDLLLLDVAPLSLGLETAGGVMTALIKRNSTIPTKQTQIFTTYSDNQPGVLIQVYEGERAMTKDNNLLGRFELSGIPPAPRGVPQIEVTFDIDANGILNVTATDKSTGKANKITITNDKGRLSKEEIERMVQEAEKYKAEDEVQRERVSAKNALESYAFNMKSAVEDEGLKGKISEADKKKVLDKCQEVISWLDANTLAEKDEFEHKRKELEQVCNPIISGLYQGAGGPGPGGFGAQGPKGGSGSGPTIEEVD

B1: carboxymethylated α‐lactalbumin (natural protein, bovine, UniProt P00711 20-142, looked up)
chain: EQLTKCEVFRELKDLKGYGGVSLPEWVCTTFHTSGYDTQAIVQNNDSTEYGLFQINNKIWCKDDQNPHSSNICNISCDKFLDDDLTDDIMCVKKILDKVGINYWLAHKALCSEKLDQWLCEKL
modifications: reduced with 20 mM dithiothreitol in 8 M urea and alkylated with 40 mM iodoacetamide (called carboxymethylated); permanently unfolded
notes: also called CMLA; carboxymethylated lactalbumin; source: bovine α-lactalbumin bought: Sigma-Aldrich; reduced in 8 M urea with dithiothreitol, alkylated with iodoacetamide, dialysed against PBS
Which results are given for B1?
binding result [1]: binds; binding result [2]: binds
